Test results reported in patent publication US20220125907A1 (VAXCYTE, published 2022).

Molecular target: the molecule itself
Experiment: SEC-MALS of purified IpaB in solution (self-association)

B1: Invasion Plasmid Antigen B (IpaB), wild type, full length (other)
chain: MHNVNTTTTGLSLAKILASTELGDNTIQAGNDAANKLFSLTIADLTANKNINTTNAHSTSNILIPELKAPKSLNASSQLTLLIGNLIQILGEKSLTALTNKITAWKSQQQARQQKNLEFSDKINTLLSETEGLTRDYEKQINKLKNADSKIKDLENKINQIQTRLSELDPDSPEKKKLSREEIQLTIKKDAAVKDRTLIEQKTLSIHSKLTDKSMQLEKEIDSFSAFSNTASAEQLSTQQKSLTGLASVTQLMATFIQLVGKNNEESLKNDLALFQSLQESRKTEMERKSDEYAAEVRKAEELNRVMGCVGKILGALLTIVSVVAAAFSGGASLALADVGLALMVTDAIVQAATGNSFMEQALNPIMKAVIEPLIKLLSDAFTKMLEGLGVDSKKAKMIGSILGAIAGALVLVAAVVLVATVGKQAAAKLAENIGKIIGKTLTDLIPKFLKNFSSQLDDLITNAVARLNKFLGAAGDEVISKQIISTHLNQAVLLGESVNSATQAGGSVASAVFQNSASTNLADLTLSKYQVEQLSKYISEAIEKFGQLQEVIADLLASMSNSQANRTDVAKAILQQTTA
notes: also called WT IpaB; IpaB WT; not shown: histidine tag
B1: binds.
